Here are results for four molecules from patent US20100040635A1.

Positions count from the first letter of the chain named.

For experiment [1], the target named is H5 hemagglutinin of influenza A/Vietnam/1203/04 (H5N1) (influenza A virus H5N1 A/Vietnam/1203/04).
Experiment [2] shares this target. In words: cell-based or functional assay.
In experiment [3] the target is H5 hemagglutinin of influenza A/Turkey/65596/06 (H5N1) (influenza A virus H5N1 A/Turkey/65596/06). In words: cell-based or functional assay.
The target of experiment [4] is H5 hemagglutinin of influenza A/Indonesia/5/05 (H5N1) (influenza A virus H5N1 A/Indonesia/5/05). The experiment can be described thus: cell-based or functional assay.
Experiment [5] addresses H1 hemagglutinin of influenza A/New Caledonia/20/99 (H1N1) (influenza A virus H1N1 A/New Caledonia/20/99). The experiment can be described thus: cell-based or functional assay.

B1: Antibody 2 (antibody, V domains shown)
VH: QVQLVQSGAEVKKPGSSVKVSCKTSGGTFSSYAVTWVRQAPGQGLEWMGGIIGMFGTTNYAQKFQGRVTITADELTSTAYMELSSLRSEDTAVYYCARGSYYYESSLDYWGRGTL
VL: ETTLTQSPATLSVSPGERATLSCRASQSVSRNLAWYQQKPGQAPRLLIYGASSRATGIPDRFSGSGSGTDFTLTISRLEPEDFAVYYCQQYGSSSITFGQGTRLEIKR
In experiment [1], B1 had a Neutralization (MIC), H5N1 Vietnam 1203 virus, microneutralization of 188 µg/mL. Also, the Minimum inhibitory concentrations required to neutralize virus in experiment [2] was 63 µg/mL; in experiment [3], 108 µg/mL; in experiment [4], 27 µg/mL.

B2: Antibody 3 (antibody, V domains shown)
V domain 1: B1 VH with Q1E, G50A, E89D, R112K
V domain 2: QSVLTQPPSVSGAPGQRVTISCGGSRSNIGAGYDVHWYQQFPGTAPKVVIYGNNNRPSGVPDRFSGSKSGTSASLAITGLQAEDEANYYCQSYDTNLGGSIFGGGTQVTVL
In the case of B2, the Neutralization (MIC), H5N1 Vietnam 1203 virus, microneutralization in experiment [1] was found to be 175 µg/mL. Besides, the results for the Minimum inhibitory concentrations required to neutralize virus in experiment [3] and in experiment [4] were 31 µg/mL and 16 µg/mL, respectively.

B3: Antibody 1 (antibody, V domains shown)
VH: B1 VH with K19R, V68L, L75M, S105T, S106T
VL: ETTLTQSPGTLSLSPGERATLSCRVSQSVSSNYLAWYQQKPGQAPRLLIYGASSRATGIPDRFSGSGSGTDFTLTISRLEPEDFAVYYCQQYGTSPRAFGHGTKVEIKR
As to B3, the Minimum inhibitory concentrations required to neutralize virus was found to be 9 µg/mL in experiment [5], 9.3 µg/mL in experiment [3] and 9.3 µg/mL in experiment [4].

B4: Antibody 4 (antibody, V domains shown)
VH: QVQLQESGPGLVKPSETLSLTCTVSGYSFDSGYYWGWLRQPPGKGLEWIGSIYHSRNTYYNPSLKSRVTISVDTSKNQFSLQLSSVTAADTAVYYCARGTWYSSNLRYWFDPWGKGTL
VL: NFMLTQPHSVSESPGKTVTISCTGSGGNIARNYVQWYQQRPGSAPVTVILEDDKRPSGIPDRFSGSIDRSSNSASLTISGLRTEDEALYYCQSYDDSDLVVFGGGTKLT
Consider B4, for which the Minimum inhibitory concentrations required to neutralize virus in experiment [5] and in experiment [4] was over 333 µg/mL in each case.
